Assay results taken from patent US20250249039A1 (published 2025).

Biological target: T1, PRAME peptide on HLA-A*02:01 (human)
T1 peptide: SLLQHLIGL
Experiment: multimer staining

- binding result: recognises
B1: PRAME-425-358 (TCR, V domains shown)
Valpha: QQPVQSPQAVILREGEDAVINCSSSKALYSVHWYRQKHGEAPVFLMILLKGGEQKGHDKISASFNEKKQQSSLYLTASQLSYSGTYFCGTEGTGDYKLSFGAGTTVTVRA
Vbeta: EAQVTQNPRYLITVTGKKLTVTCSQNMNHEYMSWYRQDPGLGLRQIYYSMNVEVTDKGDVPEGYKVSRKEKRNFPLILESPSPNQTSLYFCASSAGTGGHEQYFGPGTRLTVT
